Data as given in patent US6387638.
Changes are numbered by the printed parent chain. Names may count otherwise. Ends that are not written are not given here.

B1: HRG-β1 EGF variant D1, phage-displayed (ligand)
chain: SHLVKCAEKEKTFCVNGGECYKVRILSNPSRYLCKCPNEFTGDRCQNYVIAS
modifications: not fully specified; cysteine pairing not given here
notes: pHRG8-g3 scaffold; not shown: Display carrier only: the (GGGS)3 linker and the M13 pIII C-terminal fragment from residue 323
B2: HRG-β1 EGF variant D10, phage-displayed (ligand)
chain: B1 chain with K22M, R24K, I25T, I50M
modifications: not fully specified; cysteine pairing not given here
notes: as for B1
B3: combination variant HRG59, phage-displayed (ligand)
chain: B1 chain with K22R, R24K, I25T
modifications: not fully specified; cysteine pairing not given here
notes: not shown: Display carrier: (GGGS)3 linker and M13 pIII C-terminal fragment from residue 323
B4: HRG-β1 EGF variant B5, phage-displayed (ligand)
chain: SHLVKCGWDREGFCVNGGECFMVKDLSNPSRYLCKCPNEFTGDRCQNYVIAS
modifications: not fully specified; cysteine pairing not given here
notes: as for B1
B5: combination variant HRG53, phage-displayed (ligand)
chain: B4 chain with W8E, D9E, F21Y, M22R, D25T, I50M
modifications: not fully specified; cysteine pairing not given here
notes: as for B3
B6: combination variant HRG56, phage-displayed (ligand)
chain: B4 chain with W8E, D9E
modifications: not fully specified; cysteine pairing not given here
notes: as for B3
B7: combination variant HRG60, phage-displayed (ligand)
chain: B4 chain with W8E, D9E, F21Y, M22R, D25T
modifications: not fully specified; cysteine pairing not given here
notes: not shown: Display carrier only: (GGGS)3 linker and the M13 pIII C-terminal fragment from residue 323
B8: HRG-β1 EGF variant B10, phage-displayed (ligand)
chain: B4 chain with G7D, W8K, D9S
modifications: not fully specified; cysteine pairing not given here
notes: as for B1
B9: combination variant HRG54, phage-displayed (ligand)
chain: SHLVKCGEEREGFCVNGGECFMVKDYGYLMCKCPNEFTGDRCQNYVMAS
modifications: not fully specified; cysteine pairing not given here
notes: as for B3
B10: combination variant HRG62, phage-displayed (ligand)
chain: B9 chain with F21Y, M22R, D25T, M47I
modifications: not fully specified; cysteine pairing not given here
notes: as for B7
B11: combination variant HRG61, phage-displayed (ligand)
chain: B9 chain with M47I
modifications: not fully specified; cysteine pairing not given here
notes: as for B7
B12: combination variant HRG55, phage-displayed (ligand)
chain: B9 chain with F21Y, M22R, D25T
modifications: not fully specified; cysteine pairing not given here
notes: as for B3
B13: HRG-β1 EGF variant E3, phage-displayed (ligand)
chain: SHLVKCAEKEKTFCVNGGECFMVKDYRYRMCKCPNEFTGDRCQNYVIAS
modifications: not fully specified; cysteine pairing not given here
notes: not shown: Display carrier only: the (GGGS)3 linker and the M13 pIII C-terminal fragment from residue 323
B14: combination variant HRG48, phage-displayed (ligand)
chain: B13 chain with R27G, R29L
modifications: not fully specified; cysteine pairing not given here
notes: as for B3
B15: HRG-β1 EGF variant E6, phage-displayed (ligand)
chain: B13 chain with Y26T, R27H, I47M
modifications: not fully specified; cysteine pairing not given here
notes: as for B13
B16: combination variant HRG57, phage-displayed (ligand)
chain: B13 chain with F21Y, M22R, D25T, R27G, R29L, I47M
modifications: not fully specified; cysteine pairing not given here
notes: as for B3
B17: combination variant HRG71, phage-displayed (ligand)
chain: B13 chain with F21Y, M22R, D25T, R27G, R29L, N44H
modifications: not fully specified; cysteine pairing not given here
notes: as for B7
B18: HRG90: HRG-β1 EGF Met226Ile, phage-displayed (ligand, phage M13)
chain: SHLVKCAEKEKTFCVNGGECFMVKDLSNPSRYLCKCPNEFTGDRCQNYVIASGGGSGGGSGGGSNSQMAQVGDGDNSPLMNNFRQYLPSLPQSVECRPFVFSAGKPYEFSIDCDKINLFRGVFAFLLYVATFMYVFSTFANILRNKES
notes: range 323-end
B19: Trx-HRG-β1 146-244 S177A fusion (soluble) (ligand)
chain: AYVSSESPIRISVSTEGANTSSSTSTSTTGTAHLVKCAEKEKTFCVNGGECFMVKDLSNPSRYLCKCPNEFTGDRCQNYVMASFYKHLGIEFMEAEELY
B20: Trx-HRG-β1 146-244 L179A fusion (soluble) (ligand)
chain: B19 chain with A32S, L34A
B21: Trx-HRG-β1 146-244 P205A fusion (soluble) (ligand)
chain: B19 chain with A32S, P60A
B22: Trx-HRG-β1 146-244 F189A fusion (soluble) (ligand)
chain: B19 chain with A32S, F44A
B23: Trx-HRG-β1 146-244 R207A fusion (soluble) (ligand)
chain: B19 chain with A32S, R62A
B24: Trx-HRG-β1 146-244 N192A fusion (soluble) (ligand)
chain: B19 chain with A32S, N47A
B25: Trx-HRG-β1 146-244 E195A fusion (soluble) (ligand)
chain: B19 chain with A32S, E50A
B26: Trx-HRG-β1 146-244 K200A fusion (soluble) (ligand)
chain: B19 chain with A32S, K55A
B27: Trx-HRG-β1 146-244 H178A fusion (soluble) (ligand)
chain: B19 chain with A32S, H33A
B28: Trx-HRG-β1 146-244 T217A fusion (soluble) (ligand)
chain: B19 chain with A32S, T72A
B29: Trx-HRG-β1 146-244 G194A fusion (soluble) (ligand)
chain: B19 chain with A32S, G49A
B30: Trx-HRG-β1 146-244 G193A fusion (soluble) (ligand)
chain: B19 chain with A32S, G48A

What was measured:
[1] = molecular target: T1, ErbB-3 receptor-Ig fusion (homodimer) (human, UniProt P21860 20-643; P21860 20-636); assay: phage ELISA, soluble ErbB-3-Ig as competitor
T1 sequence (P21860 other isoform, or with tags, fused parts or gaps): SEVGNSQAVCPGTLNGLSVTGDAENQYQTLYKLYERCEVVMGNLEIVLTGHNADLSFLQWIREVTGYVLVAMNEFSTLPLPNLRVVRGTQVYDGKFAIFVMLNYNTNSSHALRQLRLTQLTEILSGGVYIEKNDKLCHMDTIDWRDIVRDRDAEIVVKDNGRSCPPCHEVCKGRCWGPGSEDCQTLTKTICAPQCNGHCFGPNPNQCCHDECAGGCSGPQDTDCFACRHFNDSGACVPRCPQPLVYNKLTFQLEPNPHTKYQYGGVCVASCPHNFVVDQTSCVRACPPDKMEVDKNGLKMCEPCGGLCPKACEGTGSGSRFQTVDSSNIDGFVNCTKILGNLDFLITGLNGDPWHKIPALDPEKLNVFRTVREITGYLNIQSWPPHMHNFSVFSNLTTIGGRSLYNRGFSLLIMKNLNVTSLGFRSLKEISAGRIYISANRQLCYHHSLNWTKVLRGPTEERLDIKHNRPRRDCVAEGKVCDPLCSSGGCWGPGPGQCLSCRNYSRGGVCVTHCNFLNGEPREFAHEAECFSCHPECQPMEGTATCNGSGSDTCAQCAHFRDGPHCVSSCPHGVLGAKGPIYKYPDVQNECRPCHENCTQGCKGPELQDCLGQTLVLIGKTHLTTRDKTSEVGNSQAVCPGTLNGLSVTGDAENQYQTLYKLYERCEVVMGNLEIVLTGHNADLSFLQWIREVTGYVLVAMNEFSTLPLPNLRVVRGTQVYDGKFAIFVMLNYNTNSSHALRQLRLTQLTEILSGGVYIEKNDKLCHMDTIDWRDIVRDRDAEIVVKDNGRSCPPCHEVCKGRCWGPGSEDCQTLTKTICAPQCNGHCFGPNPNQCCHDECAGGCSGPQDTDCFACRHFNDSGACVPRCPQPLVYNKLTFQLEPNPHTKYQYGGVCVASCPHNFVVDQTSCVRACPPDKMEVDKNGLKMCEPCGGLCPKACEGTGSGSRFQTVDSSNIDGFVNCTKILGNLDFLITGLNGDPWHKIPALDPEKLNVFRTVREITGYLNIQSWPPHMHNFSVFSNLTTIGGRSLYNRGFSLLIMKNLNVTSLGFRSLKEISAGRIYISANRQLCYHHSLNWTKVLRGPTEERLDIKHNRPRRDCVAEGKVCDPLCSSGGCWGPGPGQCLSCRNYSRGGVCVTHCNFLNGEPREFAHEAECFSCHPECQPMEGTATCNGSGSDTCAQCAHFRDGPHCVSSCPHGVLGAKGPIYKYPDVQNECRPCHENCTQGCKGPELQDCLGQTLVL

[2] = molecular target: T1, ErbB-3 receptor-Ig fusion (homodimer); assay: displacement of 125I-HRG-β1 177-244 from plate-bound ErbB-3-Ig
[3] = molecular target: ErbB-4 receptor-Ig fusion (homodimer) (human, UniProt Q15303 26-651; Q15303 26-640); assay: displacement of 125I-HRG-β1 177-244 from plate-bound ErbB-4-Ig
Chain of ErbB-4 receptor-Ig fusion (homodimer) (Q15303 other isoform, or with tags, fused parts or gaps): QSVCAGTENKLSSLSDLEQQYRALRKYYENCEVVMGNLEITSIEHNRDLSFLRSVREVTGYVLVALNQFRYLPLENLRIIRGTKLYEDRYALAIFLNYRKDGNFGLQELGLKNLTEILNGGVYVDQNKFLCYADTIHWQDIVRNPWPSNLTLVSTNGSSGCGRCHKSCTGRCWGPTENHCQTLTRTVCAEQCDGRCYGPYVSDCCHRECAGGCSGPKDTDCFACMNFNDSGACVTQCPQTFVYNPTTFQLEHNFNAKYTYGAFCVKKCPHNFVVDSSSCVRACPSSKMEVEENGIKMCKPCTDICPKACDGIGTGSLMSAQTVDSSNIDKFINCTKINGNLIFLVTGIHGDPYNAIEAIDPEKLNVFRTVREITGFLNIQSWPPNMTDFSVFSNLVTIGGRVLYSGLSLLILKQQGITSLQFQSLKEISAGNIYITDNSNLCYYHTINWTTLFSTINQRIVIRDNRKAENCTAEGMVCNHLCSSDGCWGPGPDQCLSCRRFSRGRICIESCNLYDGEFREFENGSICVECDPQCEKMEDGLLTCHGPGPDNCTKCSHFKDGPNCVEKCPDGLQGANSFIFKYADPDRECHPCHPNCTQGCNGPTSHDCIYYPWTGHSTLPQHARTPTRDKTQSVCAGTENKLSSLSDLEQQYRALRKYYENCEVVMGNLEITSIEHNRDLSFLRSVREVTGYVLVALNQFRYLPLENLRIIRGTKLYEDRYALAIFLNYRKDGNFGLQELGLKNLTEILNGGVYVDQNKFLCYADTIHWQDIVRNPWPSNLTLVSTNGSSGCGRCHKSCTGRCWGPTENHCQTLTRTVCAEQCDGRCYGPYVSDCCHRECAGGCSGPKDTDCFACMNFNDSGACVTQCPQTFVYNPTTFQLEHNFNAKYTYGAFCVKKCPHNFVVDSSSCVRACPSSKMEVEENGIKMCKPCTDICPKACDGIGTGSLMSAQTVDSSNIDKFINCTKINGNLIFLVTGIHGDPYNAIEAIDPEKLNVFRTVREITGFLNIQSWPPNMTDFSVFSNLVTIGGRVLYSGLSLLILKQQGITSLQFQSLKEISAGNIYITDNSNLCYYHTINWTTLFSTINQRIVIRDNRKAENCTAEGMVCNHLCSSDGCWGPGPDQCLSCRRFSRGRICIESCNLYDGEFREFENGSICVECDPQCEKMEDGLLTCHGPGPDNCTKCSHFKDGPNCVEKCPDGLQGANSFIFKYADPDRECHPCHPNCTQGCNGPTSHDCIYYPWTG

Binder	EC50(wt)/EC50(mut) [1] [ratio]	EC50 [2] [nM]	EC50 [3] [nM]
B1	11	–	–
B2	2.1	–	–
B3	26	–	–
B4	26	–	–
B5	26	–	–
B6	31	–	–
B7	63	–	–
B8	9.3	–	–
B9	12	–	–
B10	32	–	–
B11	29	–	–
B12	13	–	–
B13	16	–	–
B14	49	–	–
B15	6.6	–	–
B16	24	–	–
B17	79	–	–
B18	6.3	–	–
B19	–	129	54.6
B20	–	394	51.7
B21	–	39.5	34.2
B22	–	975	565
B23	–	245	24.3
B24	–	1640	696
B25	–	42	13.2
B26	–	45.4	16.9
B27	–	476	138
B28	–	145	32.7
B29	–	1210	275
B30	–	26.9	76.3
